Experiment [1] has as its target viral gp41 (HIV-1IIIB transmembrane protein on infected cells and virions) (HIV-1IIIB) (UniProt P04578). The experiment is described as follows: cell-based or functional assay.
In experiment [2] the target is viral gp41 of HIV-1 (on virions and HIV-1 infected cells) (HIV-1) (UniProt P03377). The experiment is described as follows: cell-based or functional assay.

“M41 (maltose binding protein fused to the extracellular domain of HIV-1 gp41, residues 540-686) (from UniProt P03377 540-686)”: in experiment [1], the Cell fusion (IC90) was more than 50 µM and the HIV infectivity (IC90) is more than 16 µM.
Consider “M41-P, M41 with an Ile to Pro mutation at position 578 (from UniProt P03377 540-686)”, for which, in experiment [2], the 90% block of syncytia formation (HIV-1IIIB cell fusion assay) is 85 nM and the 90% neutralisation of HIV-1IIIB infection was found to be 70 nM.

The values are drawn from patent publication US7122190.
